In experiment [1] the target is OrfL (OB-fold protein encoded by ICESt3 of Streptococcus thermophilus), purified, untagged (Streptococcus thermophilus (ICESt3)). The experiment in a line: SEC-MALS; isolated OrfM or OrfL at 30 µM; Superdex 200 Increase 10/300 GL; 20 mM Tris-HCl pH 7.5, 150 mM NaCl; monomer and dimer. (Size exclusion chromatography separates by hydrodynamic size, large species first.)

Experiment [2] addresses OrfM (OB-fold protein encoded by ICESt3 of Streptococcus thermophilus), purified, untagged (Streptococcus thermophilus (ICESt3)). The experiment is described as above.
For experiment [3], the target named is OrfL (OB-fold protein encoded by ICESt3 of Streptococcus thermophilus), purified, untagged (Streptococcus thermophilus (ICESt3)). The experiment in a line: ITC; OrfM at 280 µM injected into OrfL at 28 µM; 298 K; 20 mM Tris-HCl pH 7.5, 300 mM NaCl; single binding site model.
Experiment [4] has the same target. Description: SEC-MALS; OrfL and OrfM mixed at 1:1 and 2:1 OrfL:OrfM molar ratios; Superdex 200 Increase 10/300 GL; 20 mM Tris-HCl pH 7.5, 150 mM NaCl.
For experiment [5] the target is unchanged. The experiment in a line: switchSENSE (fluorescence proximity sensing); OrfL covalently coupled to a 48-mer DNA nanolever on the chip; OrfM injected at 0.625 to 10 µM; PE40 buffer (10 mM NaP pH 7.4, 40 mM NaCl, 0.05% Tween 20); 25°C.

Regarding “OrfL (OB-fold protein encoded by ICESt3 of Streptococcus thermophilus), purified, untagged (natural protein)”, the stoichiometry N in experiment [1] amounted to 2.
Take “OrfM (OB-fold protein encoded by ICESt3 of Streptococcus thermophilus), purified, untagged (natural protein)”: in experiment [2], the fraction of the injected protein found as dimer is 5% and the stoichiometry N amounted to 2. In experiment [3], this substance displayed a Ka of 7.1e+06 M⁻¹, a Kd of 0.14 µM, a dH of -35.9 kcal/mol and a stoichiometry N of 0.87. For the same substance, in experiment [4], the fraction of the sample found as the complex (1:1 ratio) was found to be 92% and the stoichiometry N came out at 1. Also, in experiment [5], the Kd was found to be 0.311 µM, the koff is 0.019 s⁻¹ and the kon was found to be 62000 M⁻¹ s⁻¹.

The term stoichiometry N denotes a count of units in the complex or per binding partner. The Kd is a measure of binding affinity in units of concentration. A higher Kd goes with lower affinity. Usually koff stands for the first-order rate constant of dissociation. The low end stands for a long-lived complex, the high end for a short-lived complex. What is called kon is a measure of how fast the partners come together. A lower kon goes with slower complex formation.

The values are drawn from PMC12614216.
